Measurements taken from patent publication US20210063414A1, “METHODS FOR PREVENTING AND/OR TREATING BONE LOSS CONDITIONS BY MODULATING IRISIN” (Dana-Farber Cancer Institute, Inc., priority 2018, published 2021).

Assays:
[1] = biological target: T1, MLO-Y4 cell surface proteins (Mus musculus, UniProt P41216); assay: Crosslinking/co-immunoprecipitation/mass spectrometry (TMT quantitative proteomics) to identify irisin receptors; assay type: binding; settings: co-precipitated protein Acsl1 (ACSL1_MOUSE)
T1 construct: endogenous in cells; host or cells: MLO-Y4
T1 sequence (P41216 1-699): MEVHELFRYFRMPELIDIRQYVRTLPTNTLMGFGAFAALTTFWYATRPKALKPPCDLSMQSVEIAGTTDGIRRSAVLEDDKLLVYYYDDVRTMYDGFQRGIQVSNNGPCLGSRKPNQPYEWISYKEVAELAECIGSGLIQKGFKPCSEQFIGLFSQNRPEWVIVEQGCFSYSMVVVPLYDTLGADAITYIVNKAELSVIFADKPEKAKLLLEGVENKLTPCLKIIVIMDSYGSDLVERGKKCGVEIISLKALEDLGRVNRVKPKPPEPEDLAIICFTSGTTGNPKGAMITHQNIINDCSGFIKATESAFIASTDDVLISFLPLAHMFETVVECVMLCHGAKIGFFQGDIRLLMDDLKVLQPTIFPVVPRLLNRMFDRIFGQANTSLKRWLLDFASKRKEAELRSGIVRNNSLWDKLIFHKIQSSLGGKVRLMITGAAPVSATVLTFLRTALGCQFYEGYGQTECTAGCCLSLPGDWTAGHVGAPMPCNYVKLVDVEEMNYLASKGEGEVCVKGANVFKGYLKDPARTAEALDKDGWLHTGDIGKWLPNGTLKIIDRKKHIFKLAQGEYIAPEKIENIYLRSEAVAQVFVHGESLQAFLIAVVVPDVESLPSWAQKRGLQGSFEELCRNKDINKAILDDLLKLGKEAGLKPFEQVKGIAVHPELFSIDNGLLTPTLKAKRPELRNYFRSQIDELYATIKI
Outline: (§1)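 Mouse MLO-Y4 cells were switched to serum-free FreeStyle medium for 4 h, chilled, then exposed to 10 nM His-tagged irisin (or adipsin as control) for 20 min. Cells were crosslinked with 1.5 mM DTSSP (30 min, ice), and bound proteins were pulled down on Ni-NTA and eluted with 250 mM imidazole. Eluates were separated by SDS-PAGE, trypsin-digested in gel, TMT 6-plex labelled and quantified by MS3-based LC-MS/MS on an Orbitrap Fusion Lumos.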

[2] = biological target: T2, MLO-Y4 cell surface proteins (Mus musculus, UniProt P04117); assay: as above; assay type: binding; settings: co-precipitated protein Fabp4 (FABP4_MOUSE)
T2 construct: endogenous in cells; host or cells: MLO-Y4
T2 sequence (P04117 1-132): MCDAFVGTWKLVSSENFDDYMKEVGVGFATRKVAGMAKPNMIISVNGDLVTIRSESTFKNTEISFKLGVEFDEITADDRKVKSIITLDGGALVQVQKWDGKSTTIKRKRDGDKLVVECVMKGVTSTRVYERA
Outline: as §1

B1: irisin: secreted cleaved form of FNDC5; recombinant human/mouse irisin with C-terminal his tag produced in HEK293 cells (protein)
chain: DSPSAPVNVTVRHLKANSAVVSWDVLEDEVVIGFAISQQKKDVRMLRFIQEVNTTTRSCALWDLEEDTEYIVHVQAISIQGQSPASEPVLFKTPREAEKMASKNKDEVTMKE
modifications: left off: small tags and cut ends
notes: secreted cleaved form of FNDC5; recombinant human/mouse irisin with C-terminal his tag produced in HEK293 cells
Question: B1 was tested. Which TMT signal-to-noise ratio [1] did it give?
Answer: 192.15

Question: And the “irisin/adipsin TMT signal-to-noise ratio” value [1]?
Answer: 0.532

Question: And the TMT signal-to-noise ratio [2]?
Answer: 40.1352

Question: What about the “irisin/adipsin TMT signal-to-noise ratio” value [2] of the same molecule?
Answer: 0.054
